# Measurements from US20190211071A1 (NATIONAL UNIVERSITY OF SINGAPORE, published 2019).
# Positions of bridges follow the written chain, without caps; N, C: chain ends. No end group written: not given here.
# B1: K-Ring^NSFRY (peptide)
# peptide: GLLISCFDRRIDRISHTSDIGCNSFRY
# modifications: disulfide 6-22
# B2: ^GRDK-Ring (peptide)
# peptide: GLLISCFGRRIDRISHTSDIGCRH
# modifications: disulfide 6-22
# B3: ^DRDANP (peptide)
# peptide: SLRRSSCFDRRMDRIGAQSDLGCNSFRY
# modifications: disulfide 7-23 (inferred)
# B4: ^GRGK-Ring (peptide)
# peptide: GLLISCFGRRIDRISHTSGIGCRH
# modifications: disulfide 6-22
# B5: ^DGDANP (peptide)
# peptide: SLRRSSCFDGRMDRIGAQSDLGCNSFRY
# modifications: disulfide 7-23 (inferred)
# B6: ^DGDK-Ring (peptide)
# peptide: GLLISCFDGRIDRISHTSDIGCRH
# modifications: disulfide 6-22
# B7: ^DRGK-Ring (peptide)
# peptide: GLLISCFDRRIDRISHTSGIGCRH
# modifications: disulfide 6-22
# B8: K-Ring (peptide)
# peptide: GLLISCFDRRIDRISHTSDIGCRH
# modifications: disulfide 6-22
# Target: T1, rat NPR-A (rat, UniProt P18910 29-1057)
# T1 sequence (looked up): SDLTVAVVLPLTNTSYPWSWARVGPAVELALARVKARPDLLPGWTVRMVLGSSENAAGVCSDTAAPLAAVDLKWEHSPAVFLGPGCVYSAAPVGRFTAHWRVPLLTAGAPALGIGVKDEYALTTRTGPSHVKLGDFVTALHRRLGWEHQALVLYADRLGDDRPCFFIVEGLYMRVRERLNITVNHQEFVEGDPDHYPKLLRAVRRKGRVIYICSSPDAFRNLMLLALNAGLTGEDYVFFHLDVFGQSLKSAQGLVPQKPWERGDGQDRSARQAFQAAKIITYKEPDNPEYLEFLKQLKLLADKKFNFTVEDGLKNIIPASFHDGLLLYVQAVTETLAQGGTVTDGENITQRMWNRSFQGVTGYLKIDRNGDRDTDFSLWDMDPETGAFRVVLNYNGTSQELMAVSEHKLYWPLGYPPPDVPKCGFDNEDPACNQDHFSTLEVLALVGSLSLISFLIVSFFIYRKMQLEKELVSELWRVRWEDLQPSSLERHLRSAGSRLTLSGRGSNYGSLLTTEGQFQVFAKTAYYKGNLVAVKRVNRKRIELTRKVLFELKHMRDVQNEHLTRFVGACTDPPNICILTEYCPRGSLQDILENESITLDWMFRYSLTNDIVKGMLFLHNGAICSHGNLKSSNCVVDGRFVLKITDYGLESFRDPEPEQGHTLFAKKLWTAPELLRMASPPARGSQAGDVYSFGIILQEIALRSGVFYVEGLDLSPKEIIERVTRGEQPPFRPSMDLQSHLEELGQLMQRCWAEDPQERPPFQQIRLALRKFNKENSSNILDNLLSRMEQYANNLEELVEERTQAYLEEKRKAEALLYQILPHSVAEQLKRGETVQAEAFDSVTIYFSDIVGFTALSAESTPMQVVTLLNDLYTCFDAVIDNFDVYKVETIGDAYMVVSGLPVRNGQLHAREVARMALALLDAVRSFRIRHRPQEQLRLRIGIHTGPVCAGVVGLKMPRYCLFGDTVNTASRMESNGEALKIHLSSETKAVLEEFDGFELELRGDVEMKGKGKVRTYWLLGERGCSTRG
# Test: cell-based or functional assay
Binder,NPR-A activation potency IC50 [nM],NPR-A activation potency: Ratio compared ANP [ratio],NPR-A activation potency: Ratio compared wild type NPs [ratio],Rate of generation of cGMP (pmol cGMP/pmol peptide),Rate of generation of cGMP: Ratio compared ANP [ratio],Rate of generation of cGMP: Ratio compared wild type NPs [ratio]
B1,43.8,2.5,-5.6,0.31,25.7,13.6
B2,50.7,2.9,-4.8,0.113,70.5,5
B3,45.2,2.6,2.6,0.38,21,21
B4,87.7,5.1,-2.8,0.19,41.9,8.3
B5,135,7.8,7.8,0.14,56.9,56.9
B6,866,50.1,3.6,0.005,1590,4.6
B7,694,40.1,2.8,0.007,1140,3.2
B8,244,14.1,1,0.0228,350,1

# Target: T1, rat NPR-A
# Test: cell-based or functional assay
# Remark: another data set of the same source
Binder,activation kinetics compared to K-Ring [fold],potency of cGMP response compared to K-Ring [fold],time to produce similar levels of cGMP (time-chase at EC50 concentration) [min]
B4,3,4,
B8,,,30
